B1: WDR3 (protein, UniProt Q9UNX4 1-943, looked up)
WD repeat-containing protein 3: MGLTKQYLRYVASAVFGVIGSQKGNIVFVTLRGEKGRYVAVPACEHVFIWDLRKGEKILILQGLKQEVTCLCPSPDGLHLAVGYEDGSIRIFSLLSGEGNVTFNGHKAAITTLKYDQLGGRLASGSKDTDIIVWDVINESGLYRLKGHKDAITQALFLREKNLLVTSGKDTMVKWWDLDTQHCFKTMVGHRTEVWGLVLLSEEKRLITGASDSELRVWDIAYLQEIEDPEEPDPKKIKGSSPGIQDTLEAEDGAFETDEAPEDRILSCRKAGSIMREGRDRVVNLAVDKTGRILACHGTDSVLELFCILSKKEIQKKMDKKMKKARKKAKLHSSKGEEEDPEVNVEMSLQDEIQRVTNIKTSAKIKSFDLIHSPHGELKAVFLLQNNLVELYSLNPSLPTPQPVRTSRITIGGHRSDVRTLSFSSDNIAVLSAAADSIKIWNRSTLQCIRTMTCEYALCSFFVPGDRQVVIGTKTGKLQLYDLASGNLLETIDAHDGALWSMSLSPDQRGFVTGGADKSVKFWDFELVKDENSTQKRLSVKQTRTLQLDEDVLCVSYSPNQKLLAVSLLDCTVKIFYVDTLKFFLSLYGHKLPVICMDISHDGALIATGSADRNVKIWGLDFGDCHKSLFAHDDSVMYLQFVPKSHLFFTAGKDHKIKQWDADKFEHIQTLEGHHQEIWCLAVSPSGDYVVSSSHDKSLRLWERTREPLILEEEREMEREAEYEESVAKEDQPAVPGETQGDSYFTGKKTIETVKAAERIMEAIELYREETAKMKEHKAICKAAGKEVPLPSNPILMAYGSISPSAYVLEIFKGIKSSELEESLLVLPFSYVPDILKLFNEFIQLGSDVELICRCLFFLLRIHFGQITSNQMLVPVIEKLRETTISKVSQVRDVIGFNMAGLDYLKRECEAKSEVMFFADATSHLEEKKRKRKKREKLILTLT
B2: HNRNPH1 (protein, UniProt P31943 1-449, looked up)
Heterogeneous nuclear …: MMLGTEGGEGFVVKVRGLPWSCSADEVQRFFSDCKIQNGAQGIRFIYTREGRPSGEAFVELESEDEVKLALKKDRETMGHRYVEVFKSNNVEMDWVLKHTGPNSPDTANDGFVRLRGLPFGCSKEEIVQFFSGLEIVPNGITLPVDFQGRSTGEAFVQFASQEIAEKALKKHKERIGHRYIEIFKSSRAEVRTHYDPPRKLMAMQRPGPYDRPGAGRGYNSIGRGAGFERMRRGAYGGGYGGYDDYNGYNDGYGFGSDRFGRDLNYCFSGMSDHRYGDGGSTFQSTTGHCVHMRGLPYRATENDIYNFFSPLNPVRVHIEIGPDGRVTGEADVEFATHEDAVAAMSKDKANMQHRYVELFLNSTAGASGGAYEHRYVELFLNSTAGASGGAYGSQMMGGMGLSNQSSYGGPASQQLSGGYGGGYGGQSSMSGYDQVLQENSSDFQSNIA
B3: SFPQ (protein, UniProt P23246 1-707, looked up)
Splicing factor, proline- and …: MSRDRFRSRGGGGGGFHRRGGGGGRGGLHDFRSPPPGMGLNQNRGPMGPGPGQSGPKPPIPPPPPHQQQQQPPPQQPPPQQPPPHQPPPHPQPHQQQQPPPPPQDSSKPVVAQGPGPAPGVGSAPPASSSAPPATPPTSGAPPGSGPGPTPTPPPAVTSAPPGAPPPTPPSSGVPTTPPQAGGPPPPPAAVPGPGPGPKQGPGPGGPKGGKMPGGPKPGGGPGLSTPGGHPKPPHRGGGEPRGGRQHHPPYHQQHHQGPPPGGPGGRSEEKISDSEGFKANLSLLRRPGEKTYTQRCRLFVGNLPADITEDEFKRLFAKYGEPGEVFINKGKGFGFIKLESRALAEIAKAELDDTPMRGRQLRVRFATHAAALSVRNLSPYVSNELLEEAFSQFGPIERAVVIVDDRGRSTGKGIVEFASKPAARKAFERCSEGVFLLTTTPRPVIVEPLEQLDDEDGLPEKLAQKNPMYQKERETPPRFAQHGTFEYEYSQRWKSLDEMEKQQREQVEKNMKDAKDKLESEMEDAYHEHQANLLRQDLMRRQEELRRMEELHNQEMQKRKEMQLRQEEERRRREEEMMIRQREMEEQMRRQREESYSRMGYMDPRERDMRMGGGGAMNMGDPYGSGGQKFPPLGGGGGIGYEANPGVPPATMSGSMMGSDMRTERFGQGGAGPVGGQGPRGMGPGTPAGYGRGREEYEGPNKKPRF
B4: PHGDH (protein, UniProt O43175 2-533, looked up)
D-3-phosphoglycerate …: AFANLRKVLISDSLDPCCRKILQDGGLQVVEKQNLSKEELIAELQDCEGLIVRSATKVTADVINAAEKLQVVGRAGTGVDNVDLEAATRKGILVMNTPNGNSLSAAELTCGMIMCLARQIPQATASMKDGKWERKKFMGTELNGKTLGILGLGRIGREVATRMQSFGMKTIGYDPIISPEVSASFGVQQLPLEEIWPLCDFITVHTPLLPSTTGLLNDNTFAQCKKGVRVVNCARGGIVDEGALLRALQSGQCAGAALDVFTEEPPRDRALVDHENVISCPHLGASTKEAQSRCGEEIAVQFVDMVKGKSLTGVVNAQALTSAFSPHTKPWIGLAEALGTLMRAWAGSPKGTIQVITQGTSLKNAGNCLSPAVIVGLLKEASKQADVNLVNAKLLVKEAGLNVTTSHSPAAPGEQGFGECLLAVALAGAPYQAVGLVQGTTPVLQGLNGAVFRPEVPLRRDLPLLLFRTQTSDPAMLPTMIGLLAEAGVRLLSYQTSLVSDGETWHVMGISSLLPSLEAWKQHVTEAFQFHF
B5: IGHMBP2 (protein, UniProt P38935 2-993, looked up)
DNA-binding protein SMUBP-2: ASAAVESFVTKQLDLLELERDAEVEERRSWQENISLKELQSRGVCLLKLQVSSQRTGLYGRLLVTFEPRRYGSAAALPSNSFTSGDIVGLYDAANEGSQLATGILTRVTQKSVTVAFDESHDFQLSLDRENSYRLLKLANDVTYRRLKKALIALKKYHSGPASSLIEVLFGRSAPSPASEIHPLTFFNTCLDTSQKEAVLFALSQKELAIIHGPPGTGKTTTVVEIILQAVKQGLKVLCCAPSNIAVDNLVERLALCKQRILRLGHPARLLESIQQHSLDAVLARSDSAQIVADIRKDIDQVFVKNKKTQDKREKSNFRNEIKLLRKELKEREEAAMLESLTSANVVLATNTGASADGPLKLLPESYFDVVVIDECAQALEASCWIPLLKARKCILAGDHKQLPPTTVSHKAALAGLSLSLMERLAEEYGARVVRTLTVQYRMHQAIMRWASDTMYLGQLTAHSSVARHLLRDLPGVAATEETGVPLLLVDTAGCGLFELEEEDEQSKGNPGEVRLVSLHIQALVDAGVPARDIAVVSPYNLQVDLLRQSLVHRHPELEIKSVDGFQGREKEAVILSFVRSNRKGEVGFLAEDRRINVAVTRARRHVAVICDSRTVNNHAFLKTLVEYFTQHGEVRTAFEYLDDIVPENYSHENSQGSSHAATKPQGPATSTRTGSQRQEGGQEAAAPARQGRKKPAGKSLASEAPSQPSLNGGSPEGVESQDGVDHFRAMIVEFMASKKMQLEFPPSLNSHDRLRVHQIAEEHGLRHDSSGEGKRRFITVSKRAPRPRAALGPPAGTGGPAPLQPVPPTPAQTEQPPREQRGPDQPDLRTLHLERLQRVRSAQGQPASKEQQASGQQKLPEKKKKKAKGHPATDLPTEEDFEALVSAAVKADNTCGFAKCTAGVTTLGQFCQLCSRRYCLSHHLPEIHGCGERARAHARQRISREGVLYAGSGTKNGSLDPAKRAQLQRRLDKKLSELSNQRTSRRKERGT
B6: LMNA (protein, UniProt P02545 1-661, looked up)
Prelamin-A/C: METPSQRRATRSGAQASSTPLSPTRITRLQEKEDLQELNDRLAVYIDRVRSLETENAGLRLRITESEEVVSREVSGIKAAYEAELGDARKTLDSVAKERARLQLELSKVREEFKELKARNTKKEGDLIAAQARLKDLEALLNSKEAALSTALSEKRTLEGELHDLRGQVAKLEAALGEAKKQLQDEMLRRVDAENRLQTMKEELDFQKNIYSEELRETKRRHETRLVEIDNGKQREFESRLADALQELRAQHEDQVEQYKKELEKTYSAKLDNARQSAERNSNLVGAAHEELQQSRIRIDSLSAQLSQLQKQLAAKEAKLRDLEDSLARERDTSRRLLAEKEREMAEMRARMQQQLDEYQELLDIKLALDMEIHAYRKLLEGEEERLRLSPSPTSQRSRGRASSHSSQTQGGGSVTKKRKLESTESRSSFSQHARTSGRVAVEEVDEEGKFVRLRNKSNEDQSMGNWQIKRQNGDDPLLTYRFPPKFTLKAGQVVTIWAAGAGATHSPPTDLVWKAQNTWGCGNSLRTALINSTGEEVAMRKLVRSVTVVEDDEDEDGDDLLHHHHGSHCSSSGDPAEYNLRSRTVLCGTCGQPADKASASGSGAQVGGPISSGSSASSVTVTRSYRSVGGSGGGSFGDNLVTRSYLLGNSSPRTQSPQNC
B7: TCF25 (protein, UniProt Q9BQ70 1-676, looked up)
Ribosome quality control …: MSRRALRRLRGEQRGQEPLGPGALHFDLRDDDDAEEEGPKRELGVRRPGGAGKEGVRVNNRFELINIDDLEDDPVVNGERSGCALTDAVAPGNKGRGQRGNTESKTDGDDTETVPSEQSHASGKLRKKKKKQKNKKSSTGEASENGLEDIDRILERIEDSTGLNRPGPAPLSSRKHVLYVEHRHLNPDTELKRYFGARAILGEQRPRQRQRVYPKCTWLTTPKSTWPRYSKPGLSMRLLESKKGLSFFAFEHSEEYQQAQHKFLVAVESMEPNNIVVLLQTSPYHVDSLLQLSDACRFQEDQEMARDLVERALYSMECAFHPLFSLTSGACRLDYRRPENRSFYLALYKQMSFLEKRGCPRTALEYCKLILSLEPDEDPLCMLLLIDHLALRARNYEYLIRLFQEWEAHRNLSQLPNFAFSVPLAYFLLSQQTDLPECEQSSARQKASLLIQQALTMFPGVLLPLLESCSVRPDASVSSHRFFGPNAEISQPPALSQLVNLYLGRSHFLWKEPATMSWLEENVHEVLQAVDAGDPAVEACENRRKVLYQRAPRNIHRHVILSEIKEAVAALPPDVTTQSVMGFDPLPPSDTIYSYVRPERLSPISHGNTIALFFRSLLPNYTMEGERPEEGVAGGLNRNQGLNRLMLAVRDMMANFHLNDLEAPHEDDAEGEGEWD

These molecules were tested on GFP-14-3-3β and its binding proteins (assay: GFP-14-3-3β co-IP with LC-MS/MS label-free quantification, untreated versus PP1c-treated). Settings: GFP-14-3-3β co-IP LC-MS/MS; PP1 vs untreated; student's t-test; label-free quantification, 3 replicates each.
Parameters: species or system human

Molecule	Difference (log2), PP1 vs untreated [log2]
B1	-0.4911
B2	-0.5044
B3	-0.3668
B4	-0.3751
B5	-0.3964
B6	-0.4623

Same assay, conditions: log2 difference; pairwise comparison PP1 vs untreated, label-free quantification, 3 replicates each

Molecule	Difference (log2), PP1 vs untreated
B7	1.673

Each molecule was assayed on GFP-14-3-3β (assay: GFP-14-3-3β co-IP with LC-MS/MS, untreated GFP-14-3-3β versus GFP control (14-3-3 interactome)). Settings: GFP-14-3-3β co-IP LC-MS/MS; untreated vs GFP; student's t-test; label-free quantification, 3 replicates each.
Assay type: binding, human

Molecule	Difference (log2), untreated vs GFP [log2]
B1	0.8072
B2	0.1701
B3	0.3721
B4	-0.2834
B5	0.7737
B6	-0.3549

Same assay, conditions: log2 difference; pairwise comparison untreated vs GFP, label-free quantification, 3 replicates each

Molecule	Difference (log2), untreated vs GFP
B7	-0.2721

From paper PMC7367873, “Dissecting the sequence determinants for dephosphorylation by the catalytic subunits of phosphatases PP1 and PP2A” (Nature Communications, 2020)
